Source: doi:10.1101/2024.10.14.618187, “Molecular basis of interchain disulfide-bond formation in BMP-9 and BMP-10” (bioRxiv, 2024)

B1: Pro-(X)-BMP-9 [human] / itself (parent)
chain: KPLQSWGRGSAGGNAHSPLGVPGGGLPEHTFNLKMFLENVKVDFLRSLNLSGVPSQDKTRVEPPQYMIDLYNRYTSDKSTTPASNIVRSFSMEDAISITATEDFPFQKHILLFNISIPRHEQITRAELRLYVSCQNHVDPSHDLKGSVVIYDVLDGTDAWDSATETKTFLVSQDIQDEGWETLEVSSAVKRWVRSDSTKSKNKLEVTVESHRKGCDTLDISVPPGSRNLPFFVVFSNDHSSGTKETRLELREMISHEQESVLKKLSKDGSTEAGESSHEEDTDGHVAAGSTLAIEGRSSGAGSHCQKTSLRVNFEDIGWDSWIIAPKEYEAYECKGGCFFPLADDVTPTKHAIVQTLVHLKFPTKVGKACCVPTKLSPISVLYKDDMGVPTLKYHYEGMSVAECGCR

Variants of: B1
Test: SDS-PAGE densitometry after IMAC purification
Conditions: with itself

screen value	Variant
0.7	chain 1 K335R
1.29	chain 1 G367S
3.24	chain 1 K335R G367S
